Test results reported in patent US20240377400A1, “METHODS FOR TREATING A SUBTYPE OF COLORECTAL CANCER” (Cornell University, priority 2021, published 2024).

System: MTO-sgC tumors
Assay: Subcutaneous MTO-sgC control tumors in syngeneic C57BL/6J mice treated with PEGPH20
Format: in vivo, mouse
Conditions: PEGPH20 0.0375 mg/Kg twice a week, 3 weeks
Method: FIGS. 8F-8J illustrate subcutaneous injection of sgPrkci/Prkcz and sgC MTOs in WT mice. Mice were treated twice a week with Veh or PEGPH20 0.0375 mg/kg for 3 weeks (MTOs: sgC n=10, sgC PEGPH20-treated n=10, sgPrkci/Prkcz n=10, and sgPrkci/Prkcz PEGPH20-treated n=8). Experimental design (F); Immunohistochemistry (IHC) for HA, Masson's trichrome, and αSMA (G) staining quantification (H); tumor volume (I) and tumor weight (J). Scale bars, 100 μm.
For colonoscopy-guided orthotopic injection in the colon submucosa using mouse tumor organoids (MTOs), a 10 μl organoid suspension of equivalent to 40-50 MTOs admixed with 10% Matrigel (Corning) was directly injected into the colonic submucosa of 7 weeks old C57BL/6 mice. 4 weeks after implantation, tumors were collected and analyzed histologically. Orthotopic tumor sizes were measured by caliper after mice were sacrificed. For xenografts using MTOs, a 100 μl cell suspension of equivalent to 0.5×10^6 cells of sgPrkci/Prkcz or sgC MTOs admixed with 30% Matrigel (Corning) was directly injected subcutaneously into the right flank of 7 weeks old C57BL/6 mice. […] Tumors were measured twice a week. Mice were euthanized three weeks after treatment and tumors were analyzed histologically. […]

B1: PEGPH20: a PEGylated version of human recombinant PH20 hyaluronidase; clinical-grade pegylated hyaluronidase (Halozyme Therapeutics) (protein, UniProt P38567 36-490, looked up)
Hyaluronidase PH-20: LNFRAPPVIPNVPFLWAWNAPSEFCLGKFDEPLDMSLFSFIGSPRINATGQGVTIFYVDRLGYYPYIDSITGVTVNGGIPQKISLQDHLDKAKKDITFYMPVDNLGMAVIDWEEWRPTWARNWKPKDVYKNRSIELVQQQNVQLSLTEATEKAKQEFEKAGKDFLVETIKLGKLLRPNHLWGYYLFPDCYNHHYKKPGYNGSCFNVEIKRNDDLSWLWNESTALYPSIYLNTQQSPVAATLYVRNRVREAIRVSKIPDAKSPLPVFAYTRIVFTDQVLKFLSQDELVYTFGETVALGASGIVIWGTLSIMRSMKSCLLLDNYMETILNPYIINVTLAAKMCSQVLCQEQGVCIRKNWNSSDYLHLNPDNFAIQLEKGGKFTVRGKPTLEDLEQFSEKFYCSCYSTLSCKEKADVKDTDAVDVCIADGVCIDAFLKPPMETEEPQIFYNASPSTLS
modifications: PEGylated
  growth properties of MTO-sgC tumors: did not affect
